# Source: the DeepSol protein solubility set
# Experiment: soluble on expression in E. coli; label from the status in PepcDB or PDB records
row,Sequence,soluble on expression in E. coli
1,MSLVLVKAMARIVMKFGGTSVANLERIHNVARHVKREVDAGHEVAVVVSAMSGKTNELVDWVQNAAKVAGTNAASFYDAREYDAVVASGEQVTSGLLAITLQSMGINARSWQGWQIPIRTDNAHGAARILEIDGSDIVHRMGEGQVAVVAGFQGIGPDNRIATLGRGGSDTSAVAIAAAVKADRCDIYTDVDGVYTTDPRIEPKARRMKKIAFEEMLEMASLGAKVLQVRSVELAMVHKVRTFVRSSFEDPDAPGMGDLINPPGTLICDEDEIVEQEVVTGIAYAKDEAQISLRRVADRPGVSAAIFGPLAEAHINVDMIVQNISEDGSRTDMTFTVPSGDVAKALRVLDENKGQIGFDVAQNETGLAKVSVIGIGMRSHAGVAASAFKALAEKNINIKAITTSEIKISILIDGAYAELAVRTLHSAYGLDKAEGHHHHHH,not soluble
2,MSLVMDYEGFKKEIFKLTGIDLGSYKEKQMKRRLDSLISKNNFSGYKTYIEALKTDKKLFNEFINYMTINVSEFYRNPEQWEKLKNIILPSLLEKNSNPKIWSAACSSGDEPYTLVMILNEFLPLNKIKIIATDIDAEILVKAKNGLYTEKSIANLPKKYVEKYFKVDGDVYAINQEVKNCVEFSKHNLLADPYPKNCDLIVCRNVLIYFTEEAKAEIYKKFNRALKTGGVLFVGSTEQIILYNLYNFKPIQTFFYQKEKEGHHHHHH,soluble
3,MSLVPQGGPVLCRDEMEEWSASEAMLFEEALEKYGKDFNDIRQDFLPWKSLASIVQFYYMWKTTDRYIQQKRLKAAEAEGHHHHHH,not soluble
4,MSLVTQQALPPVVSSAASPSPQASAPLPTDKTAIAIVLQGFGYSDALTYDVLSRIPAPVAVGISPYVSNISDIIARAHASHREVYVTLPMQSAHPERVDEGPHALGYGNSAADDQRELEWCLSRAAGAEGLTDASENGDDQPGGGYATSPDFSPIASAISSKGLLYLAGSAQDGRRTRGMTATAWIDGDTDAATLDSRLAALLPQDGKPAKILLMVGPITPVMIDRLANWLKGPAAQNFVVVPPSAFADSGISNDQAANLSPSNPVAPLEGHHHHHH,soluble
5,MSLVTSMTFYETRFPEDISYGSTGGPEFTTSIIETNNGYEYRKINISYPRNKYNIMYSVKSEEELLKLINFFYIHKGKAIGFRFKDWADYKAIQQKIGIGDNHQTTFQLVKTYKVDQFSYIRTITKPVINTVKIYYNDSIKNNGFSVNLSNGQIKFDIAPKDGIEIFADYEFDVPVRFDSDYLPYSIDNYKQYNCNNITLIEVKTEGHHHHHH,not soluble
6,MSLVVFLLLKSQFLYGEDFKLRKGTLIIEEGIIKGFTDEHNEREVIEFKGLVIPSLINAHTHIADNSIKDIGINKTLDELVKPPNGLKHRYLTECSDDLLAEGMKLGLGDMREHGIKYFCDFRENGVRGISLLNKALKCYDYPKAIILGRPIKVDKDEIEEVLKVSNGLGLSGANEFKDDELKLIFKIFKKFKEKDDKKLFAIHAAEHRGAVEYSLNKYGMTEVERLIDLKIKPDFIVHGTHLTDNDLELLKENNIPVVACVRANLSFNVGMPKLNELNDNLLVGIGTDNFMANSPSIFKEMDFIYKLYHIEPKDILRMATINNAKILKLENVGLVDEGFKAVFTFIKPTNAILFSKNIIASVVTRCEKGDVVDFSLMENEEEGHHHHHH,soluble
7,MSLWYNRAMKHFDTIVIGGGPAGMMATISSSFYGQKTLLIEKNRKLGKKLAGTGGGRCNVTNNGSLDNLLAGIPGNGRFLYSVFSQFDNHDIINFFTENGVKLKVEDHGRVFPASDKSRTIIEALEKKITELGGQVATQIEIVSVKKVDDQFVLKSADQTFTCEKLIVTTGGKSYPSTGSTGFGHEIARHFKHTITDLEAAESPLLTDFPHKALQGISLDDVTLSYGKHVITHDLLFTHFGLSGPAALRMSSFVKGGEVLSLDVLPQLSEKDLVTFLEENREKSLKNALKTLLPERLAEFFVQGYPEKVKQLTEKEREQLVQSIKELKIPVTGKMSLAKSFVTKGGVSLKEINPKTLESKLVPGLHFAGEVMDINAHTGGFNITSALCTGWVAGSLHYDEGHHHHHH,soluble
8,MSLYDTILFPTDGSNAAESVLEYALQIASEHEATIHILNVADTGRDSVTTIRGEVIDVLETEGERIVAEATQYAKDEGVPVVSAVLQGDPHKTIVDYSQQSDSDCIVMPTHGQRGIQRILLGSVTERVINTAEVPVIAVNPDRDRPLVYPPQHVLVPTDGSRGADLALTEGIAVARATDATLHLLHVVETGGLGPDARSVLKEGELTERANEIMAGATEKIDDTSLDTVTSVIEHGDPSKVICDYIDENEVDLAVMGTHGQTDFSRYVMGGVSAKLVRKSPVPVTWVREPESEGHHHHHH,soluble
